Source: patent publication US20020160955A1 (published 2002)

T1: human IGFBP-1 (human, UniProt P08833 26-259)
T1 construct: secreted recombinant protein purified from conditioned medium
T1 sequence (looked up): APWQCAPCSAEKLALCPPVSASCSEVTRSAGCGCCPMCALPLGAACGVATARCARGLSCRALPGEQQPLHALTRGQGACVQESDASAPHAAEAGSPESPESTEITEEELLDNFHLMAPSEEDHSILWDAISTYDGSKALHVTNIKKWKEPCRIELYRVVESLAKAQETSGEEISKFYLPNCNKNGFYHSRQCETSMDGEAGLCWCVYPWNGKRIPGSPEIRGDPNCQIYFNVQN

B1: IGF-I D12A (G1S-A70V background) displayed on phage (ligand, not shown: large carriers)
chain: SPETLCGAELVAALQFVCGDRGFYFNKPTGYGSSSRRAPQTGIVDECCFRSCDLRRLEMYCAPLKPAKSV
notes: monovalent M13 phage display
B2: IGF-I T41A (G1S-A70V background) displayed on phage (ligand, not shown: large carriers)
chain: SPETLCGAELVDALQFVCGDRGFYFNKPTGYGSSSRRAPQAGIVDECCFRSCDLRRLEMYCAPLKPAKSV
notes: monovalent M13 phage display
B3: IGF-I F49A (G1S-A70V background) displayed on phage (ligand, not shown: large carriers; small tags and cut ends)
chain: SPETLCGAELVDALQFVCGDRGFYFNKPTGYGSSSRRAPQTGIVDECCARSCDLRRLEMYCAPLKPAKSV
notes: monovalent M13 phage display; also called IGF-F49A phage
B4: IGF-I D45A (G1S-A70V background) displayed on phage (ligand, not shown: large carriers)
chain: SPETLCGAELVDALQFVCGDRGFYFNKPTGYGSSSRRAPQTGIVAECCFRSCDLRRLEMYCAPLKPAKSV
notes: monovalent M13 phage display
B5: IGF-I S35A (G1S-A70V background) displayed on phage (ligand, not shown: large carriers)
chain: SPETLCGAELVDALQFVCGDRGFYFNKPTGYGSSARRAPQTGIVDECCFRSCDLRRLEMYCAPLKPAKSV
notes: monovalent M13 phage display

Columns and labels:
human IGFBP-1 = biological target: T1, human IGFBP-1; assay: competitive phage ELISA
Experimental: (§1) E. coli cells (XL1-Blue, Stratagene) freshly transformed with phagemid vector were grown overnight in 5 mL 2YT medium (Sambrook et al, supra) in the presence of M13-VCS helper phage (Stratagene). Phage particles were harvested and resuspended in PBS buffer as described in Lowman, H. B., “Phage Display of Peptide Libraries on Protein Scaffolds,” in Cabilly, S. (ed.), Combinatorial Peptide Library Protocols (Humana Press Inc.: Totowa, N.J., 1998), pp. 249-264. Then phage concentrations were normalized to yield a maximal ELISA signal of 0.2-0.4 for each mutant (Lowman, in Cabilly, S. (ed.), supra). Threefold serial dilutions of soluble competitor were prepared on non-absorbent microtiter plates (Nunc, F, 96 wells) with binding buffer (0.5% TWEEN™ 20/PBS) containing phage at the previously-determined concentrations. […] After blocking, the plates containing immobilized target were washed with 0.05% TWEEN™/PBS buffer and subsequently incubated with 80 μl/well of the premixed phage-competitor solutions for 1 hour at room temperature. After washing, bound phage was detected with 80 μl/well of a solution containing a primary rabbit anti-phage polyclonal antibody and a secondary goat anti-rabbit monoclonal antibody-horseradish peroxidase conjugate in 0.5% TWEEN 20™/PBS. o-Phenylenediamine (Sigma) and tetramethylbenzidine (Kirkegaard and Perry) were used as chromogenic substrates, resulting in product detection at 492 and 450 nm, respectively. IC₅₀ values were determined by fitting the binding data to a generic saturation curve (Lowman, in Cabilly, S. (ed.), supra). […] Numbers in Table I represent mean +standard deviation of individually assessed IC₅₀ values.

[1] = biological target: T2, recombinant human IGFBP-3 (human, UniProt P17936 28-291); assay: competitive phage ELISA
T2 construct: secreted recombinant protein purified from conditioned medium
Experimental: as §1

[2] = biological target: T2, recombinant human IGFBP-3; assay: competitive phage ELISA: soluble IGFBP-3 against IGFBP-3-coated wells
Experimental: The plates were then blocked with 0.5% TWEEN 20™/PBS (also used as binding buffer) for 2 hours at room temperature (proteinaceous blocking agents like bovine serum albumin were avoided to prevent potential IGF or IGFBP contamination). E. coli cells (XL1-Blue, Stratagene) freshly transformed with phagemid vector were grown overnight in 5 mL 2YT medium (Sambrook et al, supra) in the presence of M13-VCS helper phage (Stratagene). Phage particles were harvested and resuspended in PBS buffer as described in Lowman, H. B., “Phage Display of Peptide Libraries on Protein Scaffolds,” in Cabilly, S. (ed.), Combinatorial Peptide Library Protocols (Humana Press Inc.: Totowa, N.J., 1998), pp. 249-264. Then phage concentrations were normalized to yield a maximal ELISA signal of 0.2-0.4 for each mutant (Lowman, in Cabilly, S. (ed.), supra). Threefold serial dilutions of soluble competitor were prepared on non-absorbent microtiter plates (Nunc, F, 96 wells) with binding buffer (0.5% TWEEN™ 20/PBS) containing phage at the previously-determined concentrations.

T2 sequence (P17936 28-291 limits assumed): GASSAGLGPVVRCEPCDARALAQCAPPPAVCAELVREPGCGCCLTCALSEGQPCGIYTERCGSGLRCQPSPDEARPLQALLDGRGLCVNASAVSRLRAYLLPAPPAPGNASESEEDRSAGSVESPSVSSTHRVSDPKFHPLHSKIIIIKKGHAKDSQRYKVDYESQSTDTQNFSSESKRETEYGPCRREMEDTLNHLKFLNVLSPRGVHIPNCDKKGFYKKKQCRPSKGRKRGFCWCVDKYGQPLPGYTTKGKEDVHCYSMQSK

Binder	binding result (human IGFBP-1)	binding result [1]	other results
B1	binds		
B2		binds	
B3			binding result [2]: binds
B4	binds		
B5		binds	
